Reference: the DeepSol protein solubility set

Experiment: soluble on expression in E. coli; label from the status in PepcDB or PDB records
With “MSLTGNPPNPAGIKTDYLWKKILTPQGLTDILENYAQVVEEKDEKTGKKKKVQIFPRYHQLDVVRKLLAHAEWHGAGMRYLVQHSAGSGKSNSIAWLAHQLISLKKDDKEIFDSIIVITDRRVLDKQIRDTIKQFAQVGSTVGHAERSGDLRKFIESGKKIIISTVQKFPFILDEIGNEHRGRKFAIIIDEAHSSQGGRTAAAMSEALSDSKDQKDPEDTINDALQKRMEARKMLPNASYFAFTATPKNKTLELFGEPYKDGDKIKHRPFHNYTMKQAIQEGFILDVLRYYTPVNSYYKLIKTVESDPEFDTKKAKKKLRKYVESHDYAIRLKAEIIVDHFQEQVIALNKIGGQARAMVVTNGIERAIQYYHAIRDYLLELNSPYKAIVAFSGEHEYGGVKVTEATLNGFPSSQIEDKIEEEPYRFLICADKFQTGYDEPLLHTMYVDKVLSGIKAVQTLSRLNRAHPKKHDVFVLDFMNDTDTIQDAFSDYYRTTVLSDETDPNKLHDLKSDLDSYQAYSPEQIEQFVELYLGGADRDKLDPILDVCVATYKDHLDEDEQVDFKSKAKAFSRTYGFLASILPYTNADWEKLSIFLNFLIPKLPAPREEDLSKGILEAIDMDSYRVEKQAVVNIQLPDSDSEIEPVPTEAGGFKPEPELDRLSNILKTFNDQFGNIRWTDSDRVHRLITEEIPARVAADVAYQNAKKNSDKQNAKIEHDKALARVMIALMKDDTQLFKLFSDNESFRRTLTDAIFERTYSEGHHHHHH” the “soluble on expression in E. coli” value was “not soluble”.
In the case of “MTMVKTLVALATERMLLKTSGPTFLRGIEFMYAAGLAPDRLSVMMTSSHKYVLQFHSKCDIRPFAANYPNFGRVLRGIVHVREWRIKSIEFVNVAFYMRDVDNLERAIEKLGVELVLLRNCTYPGVQRGDEAVKFLSALNRKKQAVVCEYGDDRLKHRIGRRSSGNRTRRASRNGQEIVNPAIAPGAAAAAQPALEAAPAAPAAGAAAPEANAPQAAPPGIRRPIPLNPDQARHIIPQLLNPGGAQPAPVQDGPVRGPPGIINQGRVVVGAHVYEFRAADVPNADGVPAVHNINHLLNVLNENAGNDVRVIVLPSRVGEGLPIHFNNNDLIFRHQSRPQPAPQQAAAAAAAGAAPAVAVGAEPLPQPDDVQIAPIPADERQARYARVQARLGHMMNARMRQNQEDQQYYYDQQPPNLMVVGTAHAHYRRHMNAQAHQQQREPSWNNYAVANAPPAIIQRNLDAPAPMFGVAVNEPQVQRNGDDSNDSTDREEIYDAEQQRQEALRDLVADPEAQPNFAPVEAQAVDLDMLEEEGEDDEVMEVGGVDGQFMMDGRAVME”, the “soluble on expression in E. coli” value is reported as “not soluble”.
In the case of “MSLMLSHNPIVEPFALAHATIVTGDKAGTILRNMTIVVGADGRIEQVAPSIETSIPAEYHYLDGTGKIVMPGLINAHTHLFSQGKPLNPKLATPKGQRMVATFAHSPLGKPYMAATVKHNATTLLESGVTTIRTLGDVGYEVVTLRDQIDAGQILGPRILASGPLMAIPEGHGAPLIALTSGTPEEARTAVAQNLKAGVNAIKIAATGGVTDAQEIGEAGSPQMSVEQMRAICDEAHQYGVIVGAHAQSPEGVRRSLLAGVDTIEHGSVLDDELIGMFRHNPNALRGYSALIPTLSAGLPLTLLGQDVTGITDIQLENSKNVVGGMVSGARQAHEAGLMIGVGTDTGMTFVPQYATWRELELLVAYAGFSPAEALHAATAVNASILGVDAETGSLEVGKSADLLVLNANPLDDLRALEHPALVIAAGHPVWRPGPKRFADIDALLDEAYAEGHHHHHH”, the “soluble on expression in E. coli” value is reported as “soluble”.
With “MSDTVEELVQRAKLAEQAERYDDMAAAMKKVTEQGQELSNEERNLLSVAYKNVVGARRSSWRVISSIEQKTEGSEKKQQLAKEYRVKVEQELNDICQDVLKLLDEFLIVKAGAAESKVFYLKMKGDYYRYLAEVASEDRAAVVEKSQKAYQEALDIAKDKMQPTHPIRLGLALNFSVFYYEILNTPEHACQLAKQAFDDAIAELDTLNEDSYKDSTLIMQLLRDNLTLWTSDVGAEDQEQEGNQEAGN” the “soluble on expression in E. coli” value was “soluble”.
With “SYSYVYIYMPTWREDKRNILEIIDFDRLNQLCIKNNNLFLFRLHPNTEINLDMLVSYSNLRIIDSSCDIYPILPFTDVLITDYSSIYYDYMLIPNKQILLFPFDEEEYCTFNRDLAFDYKIYTPGIRIYSFEALLEIVESKKNLNIKEIKVIKKLFWKGRNESIIDRIIN” the “soluble on expression in E. coli” value was “not soluble”.
With “MVRLIHTLADHGDDVSCCAFSAALLATCSLDKTIRLYSLSDFAELPYSPLKFHTYAVHCCCFSPSGHVLASCSTDGTTVLWSSHSGHTLTVLEQPGGSPVRVCCFSPDSAYLASGAADGSIALWNAQTYKLYRCGSVKDSSLVACAFSPDGGLFVTGSSGGDLTVWDDRMRCLHSEKAHDLGITCCSFSSQPLSGGEGLQSYQLASCGQDCEIKLWAVTITRVLGFELKYKSTLSGHCAPVLACAFSHDGKMLASGSVDKSVIIHGIGPQSVLHTLTQHTRYVTTCAFAPNTLLLATGSMDKTVNIWQFDLETPCQGSMNDPLKHFTEEWSEEDVSVWLRAQGLEDLVGIFRANNIDGKELLHLTKESLAGDLKIESLGLRSKVLRSIEELRAKMDSLSSGIPDEFICPITRELMKDPVIASDGYSYEREAMESWIHKKKRTSPMTNLALPSLVLTPNRTLKMAINRWLETHEK” the “soluble on expression in E. coli” value was “soluble”.
For “MSTHGSLSEVERFNLLYKSSFNKVCNFACFYVRNKQASEDITMDAFLQLLETMKVESVDNPMALLITIVKHKSLDYLKTQVRREDTKDDLIQWKQRELAIRISNLEGCNPSYIFSQEIKSIVMKTLNQLPEQTKKVFIMNRFENKSGKEIAQTLGISVKGVDYHMNKALKELRAALKDYLPILTWLCFMNPINKG”, the “soluble on expression in E. coli” value was “not soluble”.
For “MDYYRVGTLVNTHGIRGEVKVVVVTDFPEERFKVGQQLSLFKTPDETTGGITVKIAKAREQKGLYFLTFEGLDNINDVERYKGWTIKVPAEALHALPAGEYYYHQIVGLQVVTTADEPLGTIKEILSPGANDVWVVKRDHGQSDVLLPKIPQVIKDVDLDAGVVTVELMEGLIDLEHHHHHH”, the “soluble on expression in E. coli” value was “soluble”.
With “QLERGQEKQALEQAILARTDAPYQSLASVLDNNDWREESVIGVKVQAEAKPEPLPVVLLDNQTFQGKVGYLAYQVVSVGQDPITLALLELGFVEGLRTRDSLPTVTTLTSPTNVTGRLYRKSMNPLSSELMPEMGEGIRVQNLNISELNELLNVELMPAVLQPDNLENWAYPFPWNPLPLTSAKHFGYAVQ” the “soluble on expression in E. coli” value was “not soluble”.
In the case of “MGSDKIHHHHHHMKVLLYLEAENYLRKSGIGRAIKHQAKALSLVGQHFTTNPRETYDLVHLNTYGLKSWLLMIKAQKAGKKVIMHGHSTEEDFRNSFIFSNLLSPWFKKYLCHFYNKADAIITPTLYSKSLIESYGVKSPIFAVSNGIDLEQYGADPKKEAAFRRYFDIKEGEKVVMGAGLFFLRKGIDDFVKVAQAMPDVRFIWFGETNKWVIPAQVRQMVNGNHPKNLIFPGYIKGDVYEGAMTGADAFFFPSREETEGIVVLEALASRQHLVLRDIPVYYGWVDQSSAELATDIPGFIEALKKVFSGASNKVEAGYKVAQSRRLETVGHALVDVYKKVMEL”, the “soluble on expression in E. coli” value is reported as “not soluble”.
With “MARSDSDKNGNGGNLGFEAELFKAADKLRGNMEPSDYKHVALGLIFLKYISDAFEAKHKALLAEDALAAEDKDEYLADNVFWVPKEARWSHLQANAKQPTIGTLIDDAMRAIEKDNASLKGVLPKDYARPALNKVMLGELIDLISGIGHLLPSPSGRGAGGEGQSFDILGRVYEYFLGQFAGAEGKRGGEFYTPRSVVRVLVEMLEPYSGRVYDPCCGSGGMFVQSEKFVQEHGGRIGDIAIYGQESNYTAWRLAKMNLAVRGIDADIRWNNEGSFHKDELRDLKADYILANPPFNISDWGGDRLREDVRWQFGVPPVGNANYAWLQHIYWHLAPNGTAGVVLANGSMSSNQSGEGEIRRAMLEADAVDCMVALPGQLFYSTQIPACLWFLARNKNPANGKTGGLRDRRGHVLFIDARKMGVLVDRTRRELSDEEIQKIARTYHAWRGEPDAGDYADVAGFCKSATLDEIRKHGHVLTPGRYVGAAEVEDDGEPFEEKMARLAAQWRQQRDEAAKLDAAIEANLKELGFWE” the “soluble on expression in E. coli” value was “soluble”.
In the case of “MKIYVSRSRLKSNRRRLINETDVERLFSRNGFQIIHPQELTIKEQINLFRHAQVIAGPLGSAMYNCVFQTKPTKKLLLTYEKFIKMSDLLINTSTNGLLYYFAGTEHKQNKSPSNTEWLEHHHHHH”, the “soluble on expression in E. coli” value is reported as “soluble”.
With “MSLKEYKSKIEFSVYSTSGMKTRMEDYYLCIKNMNKMIQKEKKELTYFGVFDGHVGTSAADYCNFKLYNEIVRSKSFPKNIENAIQDGIINVENGFKEIAMKTKVNAGTTLAIVMIYDNTIYTANVGDSEIVVCYNDGSYVVTSEKHNPSVDKEKARIESAGGKVFYNHGWRVDGLLGVSRSIGDESMKKYVICQPKIWSKAIDSSFQFIIVACDGFWNVFKYEDAINLARNYLFNYSFSNEEDKDSNGIILPRNKGDVSRYLIDIALKRQSFDNITVTICYFNEGHHHHHH” the “soluble on expression in E. coli” value was “soluble”.
With “SRLMNEIRETRGLAYSVYSTFAPYQEKGPFEIGLQTKKEQAEQALQLTQKTLRDFVEQGPTEEELQAARQNIVGGFPLRIDSNQKILGYLGVIGFYDLPLTYLEDYVKAVEKVTVAQIRDAFKRRIDPAGMVTVVVGA” the “soluble on expression in E. coli” value was “not soluble”.
With “MQRVTITLDDDLLETLDSLSQRRGYNNRSEAIRDILRSALAQEATQQHGTQGFAVLSYVYEHEKRDLASRIVSTQHHHHDLSVATLHVHINHDDCLEIAVLKGDMGDVQHFADDVIAQRGVRHGHLQCLPKED” the “soluble on expression in E. coli” value was “soluble”.
In the case of “MSASDGDNTEQTGRRRSFGNLFGSTRVPFSSLSDIYANQSTFAKDQGVQSEVDVADAWSQHHAPTRDQYVQSEIITAVETSSQYEVQTKDKEVEAICSTANRTTQTCHATNIAGTNSESCLIEKLANSLLEHLQARRPIKARTAFPIYLQQPEQLQLLPPPDQQSAPVPPSHPLQNSEARQEDLEQTEMPQASQQIGINETSLNDADSQSFFHSRLHQTEQREETNSNSMQSIHSQVNPPASQETMESHFPEMINSRKSDHQLCFSFKKVTSERCSSFPTRHDGSSHFARSSSGLLGSMSSQQQRSQFPVPQEEGNQAEDMRGAQQPHNARNLFGGVGGMFPSMPNSSGGQGPDWQNNHFIRPFGQPAAGMMSWHPGMMPSHMNNSAAPSSFFESPFMPPYDVFMQQQMLLHSQYAAWEQQRNHAMMYQNAQNQNSANVNPSFADIPSAAPISQPEVNVNENQIVPEETERLEADLEIENTVDAIIVTDVGSVNQAVSGVNSIARETEEINNQDVRNETPVEDFGSIISAISITENRNESPMPSASETDDTSPHTSRSRYGSSVAISTGMKRARLEPSQSPPGSSRKNSRNETTKKNSKTPSSTIDKEPTSSKRTRKAPARYEAEWNAEQGGDTRRAKRWSKDFYKAPSKK”, the “soluble on expression in E. coli” value is reported as “not soluble”.
For “MAIAPQQIQERLKQEQYQKFVVADIGNFPHCLAQTPEGIASGQRYQKYSTNSLSRTPPFSQWGAPQLLTPKSAQEYIKFAQQRNKKSSFKIDGEAVRVSECSNFAYHSAGVLLDDPQIRTQYDVAVIGSMHSNGRYLHNITLLVPKGSRLPQPPQQLTAEVFPIGTLIVDPWAVGMGHPPEQALAIPKEQFAYNRSLFPATVNYQSALDESLTSTRTGQLTPYTGTPSRTGRQEVRAESQFPGTRRPVSATIPGNFAAYHELWRNAFQEIMNDPRHQLHRNDVEYKKIHAIRTVLDDYTKGGNTWWAKFRRIFTFHWNRHHVKVVDDIVKEIDAGNYTTSRALVDRLDNLAISLGSKLNPKGTLKEQIGFIKIQEQNPVEEIENLSRPNLT”, the “soluble on expression in E. coli” value was “not soluble”.
